Test results as given in patent publication US20190309079A1 (Regeneron, published 2019).

T1: LEPR-P316T (signaling-impaired mutant) on HEK293 reporter cells (human, UniProt P48357 22-1165)
T1 sequence: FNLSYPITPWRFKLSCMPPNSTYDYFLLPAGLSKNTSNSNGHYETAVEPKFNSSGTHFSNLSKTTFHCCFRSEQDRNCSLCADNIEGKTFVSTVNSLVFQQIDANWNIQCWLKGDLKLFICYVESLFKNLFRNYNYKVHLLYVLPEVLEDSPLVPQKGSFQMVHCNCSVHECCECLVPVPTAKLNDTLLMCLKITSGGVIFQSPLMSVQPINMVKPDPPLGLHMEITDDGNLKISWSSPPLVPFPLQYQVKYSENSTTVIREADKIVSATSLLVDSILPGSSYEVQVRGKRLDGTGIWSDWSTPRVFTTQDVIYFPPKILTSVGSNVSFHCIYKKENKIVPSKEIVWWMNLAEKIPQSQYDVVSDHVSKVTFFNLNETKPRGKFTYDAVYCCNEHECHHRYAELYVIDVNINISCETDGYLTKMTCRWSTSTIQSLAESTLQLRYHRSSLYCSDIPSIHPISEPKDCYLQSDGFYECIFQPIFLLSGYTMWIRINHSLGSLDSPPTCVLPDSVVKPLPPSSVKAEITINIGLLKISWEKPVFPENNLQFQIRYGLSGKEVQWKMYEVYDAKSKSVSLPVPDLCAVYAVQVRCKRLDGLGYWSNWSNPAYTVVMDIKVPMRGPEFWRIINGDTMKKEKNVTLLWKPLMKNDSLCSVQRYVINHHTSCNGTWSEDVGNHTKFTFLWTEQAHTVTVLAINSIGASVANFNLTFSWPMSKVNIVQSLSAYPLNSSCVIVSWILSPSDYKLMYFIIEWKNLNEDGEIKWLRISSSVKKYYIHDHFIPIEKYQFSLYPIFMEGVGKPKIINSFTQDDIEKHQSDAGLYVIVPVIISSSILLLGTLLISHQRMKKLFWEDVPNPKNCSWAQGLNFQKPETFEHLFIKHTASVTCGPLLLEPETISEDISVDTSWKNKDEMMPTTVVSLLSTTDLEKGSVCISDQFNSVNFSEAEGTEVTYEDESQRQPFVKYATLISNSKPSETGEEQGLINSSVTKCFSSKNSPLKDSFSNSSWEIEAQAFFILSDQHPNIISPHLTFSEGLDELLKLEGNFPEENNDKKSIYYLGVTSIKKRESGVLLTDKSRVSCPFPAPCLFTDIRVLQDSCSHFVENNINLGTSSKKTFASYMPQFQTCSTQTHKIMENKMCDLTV

T2: LEPR-A409E (signaling-defective mutant) on HEK293 reporter cells (human, UniProt P48357 22-1165)
T2 sequence: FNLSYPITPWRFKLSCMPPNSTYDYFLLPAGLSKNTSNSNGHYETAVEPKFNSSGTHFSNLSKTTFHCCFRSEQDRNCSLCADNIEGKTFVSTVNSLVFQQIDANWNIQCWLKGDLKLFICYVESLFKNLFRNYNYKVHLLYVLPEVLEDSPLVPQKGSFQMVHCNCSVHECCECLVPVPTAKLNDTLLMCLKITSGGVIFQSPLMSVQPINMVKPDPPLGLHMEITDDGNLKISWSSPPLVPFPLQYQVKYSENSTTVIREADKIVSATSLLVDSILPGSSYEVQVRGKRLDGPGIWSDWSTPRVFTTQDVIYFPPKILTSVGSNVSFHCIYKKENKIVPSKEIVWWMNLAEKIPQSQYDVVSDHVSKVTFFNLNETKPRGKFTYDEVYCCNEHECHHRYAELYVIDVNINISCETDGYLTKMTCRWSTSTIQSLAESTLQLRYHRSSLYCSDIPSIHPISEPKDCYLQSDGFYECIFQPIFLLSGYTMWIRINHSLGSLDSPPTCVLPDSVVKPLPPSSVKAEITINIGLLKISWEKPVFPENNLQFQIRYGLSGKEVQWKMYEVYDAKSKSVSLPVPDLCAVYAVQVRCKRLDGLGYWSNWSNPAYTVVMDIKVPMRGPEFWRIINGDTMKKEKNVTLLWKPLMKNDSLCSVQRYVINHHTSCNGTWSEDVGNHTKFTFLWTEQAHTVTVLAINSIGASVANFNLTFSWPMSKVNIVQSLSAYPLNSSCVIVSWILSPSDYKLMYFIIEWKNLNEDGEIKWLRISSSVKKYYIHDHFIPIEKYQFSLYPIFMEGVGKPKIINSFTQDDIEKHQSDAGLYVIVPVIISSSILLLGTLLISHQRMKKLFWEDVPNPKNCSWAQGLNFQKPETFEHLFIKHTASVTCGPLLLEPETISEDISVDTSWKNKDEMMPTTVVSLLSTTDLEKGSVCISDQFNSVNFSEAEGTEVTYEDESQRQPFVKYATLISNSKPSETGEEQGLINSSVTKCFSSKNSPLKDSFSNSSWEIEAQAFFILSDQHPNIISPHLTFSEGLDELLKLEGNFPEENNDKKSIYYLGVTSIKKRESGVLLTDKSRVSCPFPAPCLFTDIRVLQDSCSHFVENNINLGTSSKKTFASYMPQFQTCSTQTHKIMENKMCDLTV


What was measured:
[1] = target: T1, LEPR-P316T (signaling-impaired mutant) …; experiment: cell-based or functional assay
[2] = target: T2, LEPR-A409E (signaling-defective mutant) …; experiment: cell-based or functional assay

| EC50 (read off the curve), pSTAT3 Y705/STAT3 densitometry [1] | EC50 (read off the curve), pSTAT3 Y705/STAT3 densitometry [2] | Binder |
| --- | --- | --- |
| ~4e-10 M |  | H4H16650P2 (antibody, V domains shown) VH: QVQLVESGGGVVQPGKSLRLSCVASGFTFSSDAMYWVRQAPGKGLEWVAVIYYDGNYQYYEDSVKGRFTISRDNSQNTLDLQMNSLRVDDTAVYFCARLNWDYWYLDLWGRGTLVTVSS VL: not shown |
|  | ~6e-10 M | H4H16679P2 (antibody, V domains shown) VH: QVQLVESGGGVVQPGRSLRLSCTASGFTFSSYAMYWVRQAPGKGLEWVSVIYYDGSYKYYADSVKGRFTISRDNSKNTLYLQMDSLRAEDTAVYYCASYNWNYWYFDFWGRGTLVTVSS VL: not shown |
